Assay results reported in patent US20220403048A1, “BINDING MOLECULES TO ARGINASE II [ARG2]” (Cancer Research Technology Limited, priority 2019, published 2022).

T1: ARG2 (Homo sapiens, UniProt P78540)
T1 sequence (P78540 23-354): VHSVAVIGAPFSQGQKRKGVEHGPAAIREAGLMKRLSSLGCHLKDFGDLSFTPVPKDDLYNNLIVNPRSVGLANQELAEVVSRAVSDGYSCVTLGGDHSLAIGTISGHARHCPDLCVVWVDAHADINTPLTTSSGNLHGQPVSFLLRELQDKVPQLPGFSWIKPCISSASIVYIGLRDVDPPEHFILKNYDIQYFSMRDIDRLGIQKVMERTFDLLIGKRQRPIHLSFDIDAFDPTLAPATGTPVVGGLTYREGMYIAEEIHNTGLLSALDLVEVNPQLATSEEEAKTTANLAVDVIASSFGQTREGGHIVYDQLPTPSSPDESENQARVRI

B1: C0020065: anti-ARG2 antibody, alternate lead isolation clone, VH SEQ ID NO: 2, VL SEQ ID NO: 7 (antibody, listed as Homo sapiens, V domains shown)
VH: GVNLRESGGGVVQPGRSLRLSCAASGFTFSSYAMHWVRQAPGKGLEWVAVISYDGSNKYYVDSVKGRFTISRDNSKNTLYLQMNSLRAEDTAVYYCARDSSQLWFDYWGRGTLVTVSS
VL: QSVVTQPPSVSGAPGQRVTISCTGSSSNIGTGYDVHWYQQLPGTAPKLLIYGNSNRPSGVPDRFSGSKSGTSASLAITGLQAEDEADYYCQSYDSSLSGSVVFGGGTQLTVL
modifications: C0020065
B2: C0021139: anti-ARG2 antibody, VH SEQ ID NO: 212, VL SEQ ID NO: 217 (antibody, listed as Homo sapiens, V domains shown)
VH: EVQLLESGGGLVQPGGSLRLSCAASGFTFQYDYQVWVRQAPGKGLEWVSAISGSGGSTYYADSVKGRFTISRDNSKNTLYLQMNSLRAEDTAVYYCARLRADLGLYMDLWGRGTLVTVSS
VL: QSVLTQPPSVSAAPGQKVTISCSGSSSNIGNHYVSWYQQLPGTAPKLLIYDNSERTSGIPDRFSGSKSGTSATLGITGLQTGDEADYYCGTWDELTSNLVFGGGTKLTVL
modifications: C0021139

Key:
ARG2 [1] = molecular target: T1, ARG2; assay: T cell proliferation assay (BrdU, 72 hours) with exogenous ARG2; format: cell-based; conditions: In Absence of rhARG2
Method: This assay served to provide in vitro evidence of functional efficacy for each antibody.
Briefly, Leukocyte cones (NHS Blood and Transplant, Watford, UK) underwent Ficoll Plaque (GE, Sweden; Cat: 17-1440-02) gradient separation, PBMC's were extracted and pan T cell population isolated by negative selection using the Human T Cell Enrichment Kit (Stemcell Technologies, France; Cat: 19051) according to the manufacturer's instructions.
40000 cells/well were seeded in complete growth media (RMPI 1640, 5% Human Serum Albumin) into a 96 well clear TC treated microplate (Greiner-Bio One, Germany; Cat: 655180). T Cells were activated by the addition of ImmunoCult CD3/CD28 (Stemcell Technologies, France; Cat: 10971) at a dilution of 1:40 directly into wells and the plate incubated 37° C., 5% CO2 for 45 minutes.
To determine EC50's of test antibodies, a dilution series was created in sterile TBS at 8× the final assay concentration was added to the assay plate containing cells. Plate was incubated for 30 minutes at 37° C., 5% CO2.
ARG2 was added to relevant wells of the plate at a final concentration of 15 μg/ml. The equivalent volume of ARG2 vehicle and test antibody vehicle was added to relevant control wells. […]
Calculated data was expressed as % of control (Equation 3) and graphical plots were constructed using a four parameter fit and EC50's determined using model 205 in XLFit (IDBS, UK). […]

ARG2 [2] = molecular target: T1, ARG2; assay: Dynamic light scattering of ARG2-Fab complex sizes; set-up: human ARG2 (aa23-354); His10 (C); made in house; host or cells: E. coli BL21 (DE3); conditions: FIG. 23B
Method: ARG2 and Fabs were analysed at concentrations of 8 μM (referring to monomers) in buffer containing 25 mM tris at pH 7.4 and 150 mM NaCl (FIG. 23). ARG2-Fab complexes were formed by mixing both ARG2 and Fabs at concentrations of 8 μM (referring to monomers) and incubation on ice for 1 h. Dynamic light scattering (DLS) was performed on a Zetasizer Ultra (Malvern Panalytical) using multiangle DLS. Data was collected in a 3×3 mm cuvette (Hellma Analytics) using a sample volume of 30 μl. Volume weighted size-distributions were corrected for refractive index, viscosity, and background scatter of the buffer by the instrument software.

Row | Molecule | EC50 (ARG2 [1]) | Maximum % Proliferation (ARG2 [1]) | increase in average hydrodynamic radius (Rh) of ARG2-Fab complexes in comparison with ARG2-C0020187 Fab complexes (ARG2 [2])
1 | B1 | < 0.8 nM | 82% | 
2 | B2 |  |  | 1.5 nm
